# B1: .phi.EFG: EGF with N-terminal flag extension, additional sequence DWKDDDDK (protein)
# chain: DWKDDDDKPQHWSCPEGTLAGNGNSTCVGPAPFLIFSHGNSIFRIDTEGTNYEQLVVDAGVSVIMDFHYNEKRIYWVDLERQLLQRVFLNGSRQERVCNIEKNVSGMAINWINEEVIWSNQQEGIITVTDMKGNNSHILLSALKYPANVAVDPVERFIFWSSEVAGSLYRADLDGVGVKALLETSEKITAVSLDVLDKRLFWIQYNREGSNSLICSCDYDGGSVHISKHPTQHNLFAMSLFGDRIFYSTWKMKTIWIANKHTGKDMVRINLHSSFVPLGELKVVHPLAQPKAEDDTWEPEQKLCKLRKGNCSSTVCGQDLQSHLCMCAEGYALSRDRKYCEDVNECAFWNHGCTLGCKNTPGSYYCTCPVGFVLLPDGKRCHQLVSCPRNVSECSHDCVLTSEGPLCFCPEGSVLERDGKTCSGCSSPDNGGCSQLCVPLSPVSWECDCFPGYDLQLDEKSCAASGPQPFLLFANSQDIRHMHFDGTDYGTLLSQQMGMVYALDHDPVENKIYFAHTALKWIERANMDGSQRERLIEEGVDVPEGLAVDWIGRRFYWTDRGKSLIGRSDLNGKRSKIITKENISQPRGIAVHPMAKRLFWTDTGINPRIESSSLQGLGRLVIASSDLIWPSGITIDFLTDKLYWCDAKQSVIEMANLDGSKRRRLTQNDVGHPFAVAVFEDYVWFSDWAMPSVMRVNKRTGKDRVRLQGSMLKPSSLVVVHPLAKPGADPCLYQNGGCEHICKKRLGTAWCSCREGFMKASDGKTCLALDGHQLLAGGEVDLKNQVTPLDILSKTRVSEDNITESQHMLVAEIMVSDQDDCAPVGCSMYARCISEGEDATCQCLKGFAGDGKLCSDIDECEMGVPVCPPASSKCINTEGGYVCRCSEGYQGDGIHCLDIDECQLGEHSCGENASCTNTEGGYTCMCAGRLSEPGLICPDSTPPPHLREDDHHYSVRNSDSECPLSHDGYCLHDGVCMYIEALDKYACNCVVGYIGERCQYRDLKWWELRHAGHGQQQKVIVVAVCVVVLVMLLLLSLWGAHYYRTQKLLSKNPKNPYEESSRDVRSRRPADTEDGMSSCPQPWFVVIKEHQDLKNGGQPVAGEDGQAADGSMQPTSWRQEPQLCGMGTEQGCWIPVSSDKGSCPQVMERSFHMPSYGTQTLEGGVEKPHSLLSANPLWQQRALDPPHQMELTQ
# Legend:
# [1] = target: T1, EGF receptor on fixed A431 cells (Homo sapiens, UniProt P00533); test: Receptor affinity: binding to fixed A431 cells; conditions: 1 nM, 2 hr at 37° C.
# T1 construct: Confluent A43 1 cells were fixed in 96-well microtiter plates using 0.05% formaldehyde; endogenous in cells; host or cells: A431 cells, formaldehyde-fixed
# Method: Confluent A43 1 cells were fixed in 96-well microtiter plates using 0.05% formaldehyde for 10 min at room temperature, then washed 3× with 200 μL PBS with 0.1% bovine serum albumin (BSA).
# The wells were then washed 3× with 200 μL of PBS/0.1% BSA, detached, and counted in a gamma counter.
# [2] = test system: Human foreskin fibroblasts; test: Mitogenicity: 3H-thymidine incorporation; format: cell-based
# Method: Mitogenicity was assayed substantially following the method described by D. J. Knauer et al, J Biol Chem (1984) 259:5623-31.
# Human foreskin fibroblasts were obtained and frozen at the thirteenth passage. Thawed cells are trypsinized, pelleted, and resuspended in a medium containing DMEM, 5% FBS, 1 mM sodium pyruvate, 300 μg/mL L-glutamine, 100 U/mL penicillin, and 100 μg/mL streptomycin. The cells are counted using a hemocytometer and 0.4% trypan blue. The cell concentration is adjusted to 1×10^-5 cells/mL using the same medium, and dispensed onto microtiter plates (100 μL/well). The plates are incubated for 5 days in a tissue culture incubator.
# EGF muteins prepared in Example 1 and native sequence EGF are dissolved to make 100 μg/mL solutions. These solutions are used to make serial dilutions of 20, 10, 5, 2.5, 1.25, 0.625, 0.3125, 0.15625, 0.078125, 0.0390625, 0.0195, and 0.00975 ng/mL. Ten μL of each dilution is added to a microtiter plate well, and the plates returned to the incubator and incubated at 37° C. for 18 hours. […]
# The well contents are then solubilized using 0.3 N NaOH (50 μL/well) for 30 minutes, and transferred to scintillation vials. Scintillation fluid (Ready-Solv EP, 4 mL) is then added to each vial, and the vials counted for 1 min with a 0-1,000 (^3 H) window in a Beckman LS3801 counter.
molecule,measurement,setting,value
B1,Affinity,[1],32 percentage of control (EGF)
same,Mitogenicity,[2],56 percentage of control (EGF)

# Reference: patent US5547935A (Chiron Corporation, priority 1994, dated 1996)
